According to patent publication US20140322233A1:

Assays:
[1] = target: human GCC, full length with myc tag (293-GCC#2 cells) (human), P25092; assay: whole cell binding of radiolabeled ST-toxin, 293-GCC cells
[2] = target: T1, human guanylyl cyclase C (GCC), full length (human), P25092; assay: whole cell binding of radiolabeled ST-toxin, HT-29-GCC#2/#5 cells
[3] = target: T1, human guanylyl cyclase C (GCC), full …; assay: whole cell binding of radiolabeled ST-toxin, T84 cells (endogenous GCC)

T1 sequence (P25092 24-1073 limits assumed): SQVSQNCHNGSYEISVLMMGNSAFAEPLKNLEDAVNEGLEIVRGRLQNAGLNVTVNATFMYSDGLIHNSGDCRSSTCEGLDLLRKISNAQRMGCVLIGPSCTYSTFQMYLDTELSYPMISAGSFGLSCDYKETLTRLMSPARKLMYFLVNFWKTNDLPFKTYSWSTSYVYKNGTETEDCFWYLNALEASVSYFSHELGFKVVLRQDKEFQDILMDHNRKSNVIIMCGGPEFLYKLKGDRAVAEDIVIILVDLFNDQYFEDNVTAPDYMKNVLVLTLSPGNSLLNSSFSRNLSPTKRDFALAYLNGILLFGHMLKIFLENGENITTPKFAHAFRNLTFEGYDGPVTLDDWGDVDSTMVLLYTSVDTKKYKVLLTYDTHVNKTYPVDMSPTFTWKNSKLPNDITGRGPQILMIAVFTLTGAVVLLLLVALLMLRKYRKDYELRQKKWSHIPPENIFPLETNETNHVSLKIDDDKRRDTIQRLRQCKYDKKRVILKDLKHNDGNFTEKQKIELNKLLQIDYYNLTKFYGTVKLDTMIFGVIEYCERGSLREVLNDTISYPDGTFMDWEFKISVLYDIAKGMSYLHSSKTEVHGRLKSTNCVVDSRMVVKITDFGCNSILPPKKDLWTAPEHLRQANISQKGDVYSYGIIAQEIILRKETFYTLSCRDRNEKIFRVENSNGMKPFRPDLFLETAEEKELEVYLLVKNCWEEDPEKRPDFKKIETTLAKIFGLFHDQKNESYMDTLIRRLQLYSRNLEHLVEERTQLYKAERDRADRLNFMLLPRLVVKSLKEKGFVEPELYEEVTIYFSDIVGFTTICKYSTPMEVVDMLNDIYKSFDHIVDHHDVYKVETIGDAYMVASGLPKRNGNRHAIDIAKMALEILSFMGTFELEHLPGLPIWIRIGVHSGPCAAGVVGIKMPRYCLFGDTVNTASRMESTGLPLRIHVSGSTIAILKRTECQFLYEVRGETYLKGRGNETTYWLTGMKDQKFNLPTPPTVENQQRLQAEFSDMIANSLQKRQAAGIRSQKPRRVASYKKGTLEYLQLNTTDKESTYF
human GCC, full length with myc tag (293-GCC#2 cells) (human), P25092, sequence (P25092 24-1073): as the sequence (P25092 24-1073 limits assumed) above

NTFYCCELCCNPACAGCY (modifications not checked) [heat-stable enterotoxin (ST) peptide]
Whole cell binding assay (receptor/cell) (receptor/cell) [1]: 600000 | Whole cell binding assay (receptor/cell) (receptor/cell) [2]: 100000 | Whole cell binding assay (receptor/cell) (receptor/cell) [3]: 300000
